Experimental data from paper PMC9045250.

B1: monoclonal antibody 13G11 against CD2V (antibody, V domains shown)
VH: MIMVQSQESGPDLVKPSQSLSLTCTVTGYSITSGYSWHWIRQFPGNKLEWMGYIHYSGVTNYNPSLKSRISITRDTSKNQFFLQLNSVTTEDTATYYCARAPLYYGNYVWFSYWGQGTTVTVSSK
VL: MTCDIELTQSPASLSASVGETVTITCRASGNIHNYLAWYQQKQGKSPQLLVYNAKTLADGVPSRFSGSGSGSQYSLKINSLQPEDFGSYYCQHFWSTPWTFGGGTKLENQTDK
B2: monoclonal antibody 18A3 against CD2V (antibody, V domains shown)
VH: MVKPGASVKISCKASGYSFTSYYIHWVKQRPGQGLEWIGWIFPGSGNTKYNEKFKGKATLTADTSSSTAYMQLSSLTSEDSAVYFCAQTGRVFAYWGQGTTVTVSSK
VL: MTQSPSSLSASLGERVSLTCRASQEISGYLSWLQQKPDGTIKRLIYAASTLDSGVPKRFSGSRSGSDYSLTISSLESEDFADYYCLQYASYPWTFGGGTKLESNGE

Target: no. 14 short peptide of the CD2V extracellular region (147-161) (African swine fever virus (China/2018/AnhuiXCGQ))
Test: ELISA
Conditions: remark: other sources report otherwise

Row | Binder | OD450
1 | B1 | > 1 OD450
2 | B2 | > 1 OD450
